T1: RTCB (with Archease) (Homo sapiens, UniProt Q9Y3I0)
T1 construct: RTCB, N-terminal tag cut by TEV, Sf9; Archease residues 27-168, His6-MBP cut, E. coli; with Protein archease
T1 sequence (Q9Y3I0 1-505): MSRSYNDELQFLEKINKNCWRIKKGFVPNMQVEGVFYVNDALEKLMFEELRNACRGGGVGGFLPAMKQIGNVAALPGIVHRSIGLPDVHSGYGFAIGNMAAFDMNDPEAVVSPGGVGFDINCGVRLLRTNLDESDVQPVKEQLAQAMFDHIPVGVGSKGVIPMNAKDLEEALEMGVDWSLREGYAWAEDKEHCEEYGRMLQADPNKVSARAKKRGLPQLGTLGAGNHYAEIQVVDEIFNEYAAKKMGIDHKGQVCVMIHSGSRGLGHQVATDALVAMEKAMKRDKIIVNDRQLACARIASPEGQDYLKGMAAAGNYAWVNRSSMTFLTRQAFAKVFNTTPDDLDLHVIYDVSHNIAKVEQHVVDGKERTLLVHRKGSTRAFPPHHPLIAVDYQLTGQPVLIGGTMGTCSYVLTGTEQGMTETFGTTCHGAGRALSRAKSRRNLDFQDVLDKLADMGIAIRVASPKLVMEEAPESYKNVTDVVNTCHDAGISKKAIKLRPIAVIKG
T1 sequence (Q8IWT0 27-167 partner): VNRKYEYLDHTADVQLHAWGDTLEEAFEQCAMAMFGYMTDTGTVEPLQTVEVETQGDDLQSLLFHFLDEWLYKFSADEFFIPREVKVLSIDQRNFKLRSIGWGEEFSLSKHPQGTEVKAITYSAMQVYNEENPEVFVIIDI

T2: StrepII–GFP–RTCB (human, UniProt Q9Y3I0 1-505)
T2 construct: human RTCB (UniProt Q9Y3I0), catalytic subunit of the tRNA ligase complex; inserted into the 438-Rgfp plasmid; a TEV site lies between GFP and RTCB; In the dissociation assay it is called 2× StrepII–GFP–RTCB; also called immobilized RTCB; 2× StrepII–GFP–RTCB; source: Sf9 insect cells (baculovirus), purified (Strep-Tactin, SEC); not shown: StrepII, N-terminal, kept; super folder green fluorescent …
T2 sequence: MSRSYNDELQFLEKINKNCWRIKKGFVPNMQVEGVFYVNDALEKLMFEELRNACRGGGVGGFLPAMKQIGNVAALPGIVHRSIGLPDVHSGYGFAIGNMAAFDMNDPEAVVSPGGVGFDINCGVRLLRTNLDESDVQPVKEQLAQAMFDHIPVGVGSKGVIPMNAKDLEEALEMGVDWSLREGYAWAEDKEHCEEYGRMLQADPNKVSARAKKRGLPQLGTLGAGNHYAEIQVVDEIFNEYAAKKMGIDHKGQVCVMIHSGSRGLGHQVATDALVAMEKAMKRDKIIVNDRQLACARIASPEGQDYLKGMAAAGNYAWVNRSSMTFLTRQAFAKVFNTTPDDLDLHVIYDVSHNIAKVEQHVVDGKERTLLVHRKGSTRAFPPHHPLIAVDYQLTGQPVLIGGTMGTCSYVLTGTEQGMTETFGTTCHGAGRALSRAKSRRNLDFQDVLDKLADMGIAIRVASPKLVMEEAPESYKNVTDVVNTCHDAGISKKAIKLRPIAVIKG

T3: RTCB (human, UniProt Q9Y3I0 1-505)
T3 construct: human RTCB (UniProt Q9Y3I0); inserted into the 438B plasmid (N-terminal hexahistidine tag, TEV site); the tag is removed by TEV in either case; also called apo-RTCB; un-guanylylated RTCB; source: Sf9 insect cells (baculovirus), purified (Ni-NTA, TEV cleavage, SEC); not shown: His6, N-terminal, cleaved
T3 sequence: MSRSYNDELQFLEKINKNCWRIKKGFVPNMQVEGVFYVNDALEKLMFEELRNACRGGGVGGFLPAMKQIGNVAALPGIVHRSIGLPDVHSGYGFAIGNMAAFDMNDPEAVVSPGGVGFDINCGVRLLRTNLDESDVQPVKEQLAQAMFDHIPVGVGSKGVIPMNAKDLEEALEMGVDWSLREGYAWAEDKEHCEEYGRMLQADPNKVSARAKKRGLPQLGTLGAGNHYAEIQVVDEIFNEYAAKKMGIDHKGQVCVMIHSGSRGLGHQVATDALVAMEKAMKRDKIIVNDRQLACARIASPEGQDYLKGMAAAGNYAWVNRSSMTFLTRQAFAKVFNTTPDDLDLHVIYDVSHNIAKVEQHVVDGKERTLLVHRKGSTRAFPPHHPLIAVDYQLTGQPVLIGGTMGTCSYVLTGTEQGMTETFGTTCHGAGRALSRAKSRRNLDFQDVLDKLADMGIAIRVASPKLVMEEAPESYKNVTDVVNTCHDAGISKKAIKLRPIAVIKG

B1: PYROXD1 (enzyme, human)
chain: MEAARPPPTAGKFVVVGGGIAGVTCAEQLATHFPSEDILLVTASPVIKAVTNFKQISKILEEFDVEEQSSTMLGKRFPNIKVIESGVKQLKSEEHCIVTEDGNQHVYKKLCLCAGAKPKLICEGNPYVLGIRDTDSAQEFQKQLTKAKRIMIIGNGGIALELVYEIEGCEVIWAIKDKAIGNTFFDAGAAEFLTSKLIAEKSEAKIAHKRTRYTTEGRKKEARSKSKADNVGSALGPDWHEGLNLKGTKEFSHKIHLETMCEVKKIYLQDEFRILKKKSFTFPRDHKSVTADTEMWPVYVELTNEKIYGCDFIVSATGVTPNVEPFLHGNSFDLGEDGGLKVDDHMHTSLPDIYAAGDICTTSWQLSPVWQQMRLWTQARQMGWYAAKCMAAASSGDSIDMDFSFELFAHVTKFFNYKVVLLGKYNAQGLGSDHELMLRCTKGREYIKVVMQNGRMMGAVLIGETDLEETFENLILNQMNLSSYGEDLLDPNIDIEDYFD
notes: human PYROXD1 (UniProt Q8WU10), amplified from HeLa cDNA, in pGEX-6P-1; FAD-containing flavoprotein; also called wild-type PYROXD1; WT; source: E. coli BL21(DE3), purified (Glutathione Sepharose, 3C cleavage, SEC); not shown: GST, N-terminal, cleaved

Experiments:
RTCB (with Archease) = biological target: T1, RTCB (with Archease); test: guanylylation of RTCB, intact-protein LC-MS; type: biochemical; details: covalent GMP adduct on RTCB His428, 2.5 mM MnCl2, 0.5 mM GTP, 20 mM HEPES pH 8.0, 25 °C
StrepII–GFP–RTCB = biological target: T2, StrepII–GFP–RTCB; test: pull-down; dissociation kinetics: complex formed with 0.5 mM NADH and 5 mM MgCl2, held on Strep-Tactin beads via StrepII–GFP–RTCB, NADH and unbound PYROXD1 washed out, bound PYROXD1 followed over time under aerobic conditions; Coomassie Blue; details: both partners purified
purified protein = substrate: NC(=O)C1=CN([C@@H]2O[C@H](COP(=O)(O)OP(=O)(O)OC[C@H]3O[C@@H](n4cnc5c(N)ncnc54)[C@H](O)[C@@H]3O)[C@@H](O)[C@H]2O)C=CC1; test: purified protein; type: biochemical, Homo sapiens; details: aerobic (O2 as acceptor), 20 mM Tris-HCl pH 8.0, 150 mM KCl, 0.05% Tween-20, 22 °C
RTCB = biological target: T3, RTCB; test: cryo-EM structure; 100 µM RTCB mixed 1:1 with 100 µM PYROXD1 in 20 mM HEPES pH 8.0, 150 mM NaCl, 0.5 mM TCEP, 5 mM MgCl2, 0.5 mM NADH; SEC; single-particle cryo-EM; details: both partners purified

Molecule | guanylylation of RTCB, intact-protein LC-MS (RTCB (with Archease)) | half-life of the complex upon NADH removal (StrepII–GFP–RTCB) [min] | Km (purified protein) [µM] | stoichiometry N (RTCB)
Nc1nc2c(ncn2[C@@H]2O[C@H](COP(=O)(O)OP(=O)(O)OP(=O)(O)O)[C@@H](O)[C@H]2O)c(=O)[nH]1 [GTP] | generating a mixture of guanylylated and un-guanylylated RTCB | – | – | –
B1 | – | ~2 | 611.0 ± 98.3 | 1
